# B1: 1H3 fully human monoclonal anti-IGFR1 antibody (antibody, V domains shown)
# VH: EVQLVQSGGGLVLPGGSLRLSCAGSGFTFSNYAMHWIRQAPGKGLEWVSAIGAGGDTYYADSVKGRFTISRDNAKDSLYLQMNSLRAEDMAVYYCARGRHRNWYYYNKDYWGQGTLVTVSS
# VL: EIVLTQSPATLSLSPGERATLSCRASQSVSSFLAWYQQKPGQAPRLLIYDASNRAPGIPARFSGSGSGTDFTLTISSLEPEDFAVYYCQQRSNWPRWTFGQGTKVEIKR
# B2: 15H12 fully human monoclonal anti-IGFR1 antibody (antibody, IgG3, V domains shown)
# VH: EVQLVQSGGGLVHPGGSLRLSCAASGFTFSSFAMHWVRQAPGKGLEWISVIDTRGATYYADSVKGRFTISRDNAKNSLYLQMNSLRAEDMAVYYCARLGNFYYGMDVWGQGTTVTVSS
# VL: EIVLTQVPDFQSVTPKEKVTITCRASQSIGSSLHWYQQKPDQSPKLLIKYASQSLSGVPSRFSGSGSGTDFTLTINSLEAEDAAAYYCHQSSRLPHTFGGGTKVEIKR
# B3: 19D12 fully human monoclonal anti-IGFR1 antibody (antibody, V domains shown)
# VH: B2 VH
# VL: B2 VL
# Molecular target: human IGFR1 on cells (HEK293 cells transfected with IGFR1 DNA; MCF-7 cells expressing endogenous IGFR1) (human, UniProt P08069 31-1367)
# Test: cell-based or functional assay
# human IGFR1 on cells (HEK293 cells transfected with IGFR1 DNA; MCF-7 cells expressing endogenous IGFR1), sequence (P08069 31-1367 limits assumed): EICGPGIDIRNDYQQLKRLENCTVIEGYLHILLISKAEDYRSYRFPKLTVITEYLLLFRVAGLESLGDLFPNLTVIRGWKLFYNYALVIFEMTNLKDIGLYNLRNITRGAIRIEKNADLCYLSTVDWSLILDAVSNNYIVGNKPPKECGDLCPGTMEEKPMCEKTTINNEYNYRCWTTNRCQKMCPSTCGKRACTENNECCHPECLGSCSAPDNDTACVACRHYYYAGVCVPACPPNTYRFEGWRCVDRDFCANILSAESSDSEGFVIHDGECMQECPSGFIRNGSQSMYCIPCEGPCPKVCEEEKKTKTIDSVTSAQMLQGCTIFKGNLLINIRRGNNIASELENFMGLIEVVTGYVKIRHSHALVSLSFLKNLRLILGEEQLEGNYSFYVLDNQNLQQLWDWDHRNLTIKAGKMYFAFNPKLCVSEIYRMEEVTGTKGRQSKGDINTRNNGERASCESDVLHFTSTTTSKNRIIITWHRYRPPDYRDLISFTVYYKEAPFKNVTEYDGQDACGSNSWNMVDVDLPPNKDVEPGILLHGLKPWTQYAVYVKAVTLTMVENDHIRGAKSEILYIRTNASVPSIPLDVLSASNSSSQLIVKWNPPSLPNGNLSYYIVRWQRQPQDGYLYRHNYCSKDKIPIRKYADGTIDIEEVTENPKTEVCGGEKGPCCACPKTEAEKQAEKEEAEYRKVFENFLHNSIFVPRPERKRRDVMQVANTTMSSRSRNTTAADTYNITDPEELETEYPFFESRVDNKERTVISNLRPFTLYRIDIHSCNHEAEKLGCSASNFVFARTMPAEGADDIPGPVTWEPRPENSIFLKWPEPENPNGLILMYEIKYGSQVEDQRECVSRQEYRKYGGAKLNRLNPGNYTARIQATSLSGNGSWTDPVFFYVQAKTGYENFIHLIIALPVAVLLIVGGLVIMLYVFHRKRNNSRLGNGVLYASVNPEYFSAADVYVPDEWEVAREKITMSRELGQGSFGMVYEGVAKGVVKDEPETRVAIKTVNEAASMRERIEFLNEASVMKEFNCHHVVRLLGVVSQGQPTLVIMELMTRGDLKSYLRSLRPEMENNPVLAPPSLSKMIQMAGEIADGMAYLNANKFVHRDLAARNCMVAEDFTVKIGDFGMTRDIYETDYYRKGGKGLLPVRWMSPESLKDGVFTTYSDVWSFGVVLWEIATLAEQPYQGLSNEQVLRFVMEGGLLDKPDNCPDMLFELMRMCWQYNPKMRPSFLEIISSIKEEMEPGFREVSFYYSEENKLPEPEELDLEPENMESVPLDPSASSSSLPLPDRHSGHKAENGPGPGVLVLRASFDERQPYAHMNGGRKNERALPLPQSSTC
row,Binder,"IGFR1 autophosphorylation (IGF-I stimulated cells, immunoprecipitation and Western blot), IC50 [nM]"
1,B1,0.1
2,B2,0.1
3,B3,0.1
